Measurements from ChEMBL document CHEMBL1137898, “Benzopyranones with retro-amide side chains as (inhibitory) beta-lactamase substrates” (Bioorg Med Chem Lett, 2004).

Tests used:
[1] = substrate: O=C(Cc1ccccc1)NC1Cc2ccc(C(=O)O)cc2OC1=O; assay: (§1) Km for Enterobacter cloacae P99 Beta-lactamase hydrolysis
[2] = substrate: O=C(Cc1ccccc1)NC1Cc2cccc(C(=O)O)c2OC1=O; assay: as §1
[3] = substrate: O=C(O)c1ccc2c(c1)OC(=O)C(C(=O)NCc1ccccc1)C2; assay: as §1
[4] = substrate: CC(=O)OCC1=C(C(=O)O)N2C(=O)[C@@H](NC(=O)Cc3cccs3)[C@H]2SC1; assay: as §1
[5] = substrate: O=C(O)c1cccc2c1OC(=O)C(C(=O)NCc1ccccc1)C2; assay: as §1
[6] = substrate: O=C(Cc1ccccc1)NC1Cc2cccc(C(=O)O)c2OC1=O; assay: (§2) Km for OXA-1 beta-lactamase hydrolysis
[7] = substrate: CC(=O)OCC1=C(C(=O)O)N2C(=O)[C@@H](NC(=O)Cc3cccs3)[C@H]2SC1; assay: as §2
[8] = substrate: O=C(O)c1cccc2c1OC(=O)C(C(=O)NCc1ccccc1)C2; assay: as §2
[9] = substrate: O=C(Cc1ccccc1)NC1Cc2cccc(C(=O)O)c2OC1=O; assay: (§3) Km for Staphylococcus aureus PC1 Beta-lactamase hydrolysis
[10] = substrate: O=C(O)c1ccc2c(c1)OC(=O)C(C(=O)NCc1ccccc1)C2; assay: as §3
[11] = substrate: CC(=O)OCC1=C(C(=O)O)N2C(=O)[C@@H](NC(=O)Cc3cccs3)[C@H]2SC1; assay: as §3
[12] = substrate: O=C(O)c1cccc2c1OC(=O)C(C(=O)NCc1ccccc1)C2; assay: as §3
[13] = substrate: O=C(Cc1ccccc1)NC1Cc2ccc(C(=O)O)cc2OC1=O; assay: (§4) Km for TEM-2 beta-lactamase hydrolysis
[14] = substrate: O=C(Cc1ccccc1)NC1Cc2cccc(C(=O)O)c2OC1=O; assay: as §4
[15] = substrate: O=C(O)c1ccc2c(c1)OC(=O)C(C(=O)NCc1ccccc1)C2; assay: as §4
[16] = substrate: O=C(O)c1cccc2c1OC(=O)C(C(=O)NCc1ccccc1)C2; assay: as §4

B1: Beta-lactamase (Enterobacter cloacae), P05364 (protein)
chain: MMRKSLCCALLLGISCSALATPVSEKQLAEVVANTITPLMKAQSVPGMAVAVIYQGKPHYYTFGKADIAANKPVTPQTLFELGSISKTFTGVLGGDAIARGEISLDDAVTRYWPQLTGKQWQGIRMLDLATYTAGGLPLQVPDEVTDNASLLRFYQNWQPQWKPGTTRLYANASIGLFGALAVKPSGMPYEQAMTTRVLKPLKLDHTWINVPKAEEAHYAWGYRDGKAVRVSPGMLDAQAYGVKTNVQDMANWVMANMAPENVADASLKQGIALAQSRYWRIGSMYQGLGWEMLNWPVEANTVVEGSDSKVALAPLPVAEVNPPAPPVKASWVHKTGSTGGFGSYVAFIPEKQIGIVMLANTSYPNPARVEAAYHILEALQ
Km [1]: 290 µM | Km [2]: 620 µM | Km [3]: 430 µM | Km [4]: 9 µM | Km [5]: 0.2 µM

B2: Beta-lactamase OXA-1 (Escherichia coli), P13661 (protein)
chain: MKNTIHINFAIFLIIANIIYSSASASTDISTVASPLFEGTEGCFLLYDASTNAEIAQFNKAKCATQMAPDSTFKIALSLMAFDAEIIDQKTIFKWDKTPKGMEIWNSNHTPKTWMQFSVVWVSQEITQKIGLNKIKNYLKDFDYGNQDFSGDKERNNGLTEAWLESSLKISPEEQIQFLRKIINHNLPVKNSAIENTIENMYLQDLDNSTKLYGKTGAGFTANRTLQNGWFEGFIISKSGHKYVFVSALTGNLGSNLTSSIKAKKNAITILNTLNL
Km [6]: 13.9 µM | Km [7]: 10 µM | Km [8]: 7.4 µM

B3: Beta-lactamase (Staphylococcus aureus), P00807 (protein)
chain: MKKLIFLIVIALVLSACNSNSSHAKELNDLEKKYNAHIGVYALDTKSGKEVKFNSDKRFAYASTSKAINSAILLEQVPYNKLNKKVHINKDDIVAYSPILEKYVGKDITLKALIEASMTYSDNTANNKIIKEIGGIKKVKQRLKELGDKVTNPVRYEIELNYYSPKSKKDTSTPAAFGKTLNKLIANGKLSKENKKFLLDLMLNNKSGDTLIKDGVPKDYKVADKSGQAITYASRNDVAFVYPKGQSEPIVLVIFTNKDNKSDKPNDKLISETAKSVMKEF
Km [9]: 0.3 µM | Km [10]: > 200 µM | Km [11]: 1 µM | Km [12]: 1.8 µM

B4: Beta-lactamase TEM (Escherichia coli), P62593 (protein)
chain: MSIQHFRVALIPFFAAFCLPVFAHPETLVKVKDAEDQLGARVGYIELDLNSGKILESFRPEERFPMMSTFKVLLCGAVLSRVDAGQEQLGRRIHYSQNDLVEYSPVTEKHLTDGMTVRELCSAAITMSDNTAANLLLTTIGGPKELTAFLHNMGDHVTRLDRWEPELNEAIPNDERDTTMPAAMATTLRKLLTGELLTLASRQQLIDWMEADKVAGPLLRSALPAGWFIADKSGAGERGSRGIIAALGPDGKPSRIVVIYTTGSQATMDERNRQIAEIGASLIKHW
Km [13]: > 1200 µM | Km [14]: 50 µM | Km [15]: > 200 µM | Km [16]: 290 µM
